Assay results published in patent US20110229981A1.

Columns and labels:
[1] = target: CD31 solubilized from Jurkat T cell lysates and captured on PECAM 1.2-coupled CBA beads (human) (UniProt P16284); experiment: co-capture on PECAM 1.2 CBA beads from Jurkat lysate, anti-CD3-FITC, flow cytometry; antibody CD31 treatment (CD3 + CD31 crosslink)
[2] = target: CD31 solubilized from Jurkat T cell lysates and captured on PECAM 1.2-coupled CBA beads (human) (UniProt P16284); experiment: co-capture on PECAM 1.2 CBA beads from Jurkat lysate, anti-CD3-FITC, flow cytometry; negative control (unstimulated)
[3] = target: CD31 solubilized from Jurkat T cell lysates and captured on PECAM 1.2-coupled CBA beads (human) (UniProt P16284); experiment: co-capture on PECAM 1.2 CBA beads from Jurkat lysate, anti-CD3-FITC, flow cytometry; positive pY control (Na3VO4/H2O2)
[4] = target: CD31 solubilized from Jurkat T cell lysates and captured on PECAM 1.2-coupled CBA beads (human) (UniProt P16284); experiment: co-capture on PECAM 1.2 CBA beads from Jurkat lysate, anti-CD3-FITC, flow cytometry; T-cell activation (CD3 crosslink)
[5] = target: CD31 solubilized from Jurkat T cell lysates and captured on PECAM 1.2-coupled CBA beads (human) (UniProt P16284); experiment: co-capture on PECAM 1.2 CBA beads from Jurkat lysate, anti-CD28-PE, flow cytometry; T-cell activation (CD3 crosslink)
[6] = target: CD31 solubilized from Jurkat T cell lysates and captured on PECAM 1.2-coupled CBA beads (human) (UniProt P16284); experiment: co-capture on PECAM 1.2 CBA beads from Jurkat lysate, anti-CD28-PE, flow cytometry; peptide CD31 treatment (CD3 crosslink + CD31 peptide)
[7] = target: CD31 solubilized from Jurkat T cell lysates and captured on PECAM 1.2-coupled CBA beads (human) (UniProt P16284); experiment: co-capture on PECAM 1.2 CBA beads from Jurkat lysate, anti-CD28-PE, flow cytometry; positive pY control (Na3VO4/H2O2)
[8] = target: CD31 solubilized from Jurkat T cell lysates and captured on PECAM 1.2-coupled CBA beads (human) (UniProt P16284); experiment: co-capture on PECAM 1.2 CBA beads from Jurkat lysate, anti-CD28-PE, flow cytometry; antibody CD31 treatment (CD3 + CD31 crosslink)
[9] = target: CD31 solubilized from Jurkat T cell lysates and captured on PECAM 1.2-coupled CBA beads (human) (UniProt P16284); experiment: co-capture on PECAM 1.2 CBA beads from Jurkat lysate, anti-CD28-PE, flow cytometry; negative control (unstimulated)
[10] = target: CD31 solubilized from Jurkat T cell lysates and captured on PECAM 1.2-coupled CBA beads (human) (UniProt P16284); experiment: co-capture on PECAM 1.2 CBA beads from Jurkat lysate, anti-SHP2-PE, flow cytometry; peptide CD31 treatment (CD3 crosslink + CD31 peptide)
[11] = target: CD31 solubilized from Jurkat T cell lysates and captured on PECAM 1.2-coupled CBA beads (human) (UniProt P16284); experiment: co-capture on PECAM 1.2 CBA beads from Jurkat lysate, anti-SHP2-PE, flow cytometry; positive pY control (Na3VO4/H2O2)
[12] = target: CD31 solubilized from Jurkat T cell lysates and captured on PECAM 1.2-coupled CBA beads (human) (UniProt P16284); experiment: co-capture on PECAM 1.2 CBA beads from Jurkat lysate, anti-SHP2-PE, flow cytometry; antibody CD31 treatment (CD3 + CD31 crosslink)
[13] = target: CD31 solubilized from Jurkat T cell lysates and captured on PECAM 1.2-coupled CBA beads (human) (UniProt P16284); experiment: co-capture on PECAM 1.2 CBA beads; peptide CD31 treatment against CD3 crosslink conditions
[14] = target: CD31 solubilized from Jurkat T cell lysates and captured on PECAM 1.2-coupled CBA beads (human) (UniProt P16284); experiment: co-capture on PECAM 1.2 CBA beads from Jurkat lysate, anti-SHP2-PE, flow cytometry; T-cell activation (CD3 crosslink)
[15] = target: CD31 solubilized from Jurkat T cell lysates and captured on PECAM 1.2-coupled CBA beads (human) (UniProt P16284); experiment: co-capture on PECAM 1.2 CBA beads; antibody CD31 treatment against CD3 crosslink conditions
[16] = target: CD31 solubilized from Jurkat T cell lysates and captured on PECAM 1.2-coupled CBA beads (human) (UniProt P16284); experiment: co-capture on PECAM 1.2 CBA beads from Jurkat lysate, anti-SHP2-PE, flow cytometry; negative control (unstimulated)

With CD3 (receptor) the MFI CD3 [1] was 2420 MFI, the MFI CD3 [2] was 197 MFI and the MFI CD3 [3] was 354 MFI. The MFI CD3 [4] was 17900 MFI.
“CD28 (from UniProt P10747 19-220) (receptor)” was tested, and the MFI CD28 [5] was 25200 MFI, the MFI CD28 [6] was 24300 MFI and the MFI CD28 [7] was 3930 MFI. For the same substance, the MFI CD28 [8] was 17100 MFI and the MFI CD28 [9] was 8160 MFI.
In the case of “SHP-2 (from UniProt Q06124 2-593) (enzyme)”, the MFI SHP-2 [10] is reported as 185 MFI, the MFI SHP-2 [11] is reported as 193 MFI and the MFI SHP-2 [12] is reported as 149 MFI. It also gave an increase of the amount of SHP-2 associated to CD31 [13] of 100%, an MFI SHP-2 [14] of 90 MFI and an increase of the amount of SHP-2 associated to CD31 [15] of 50%. It also gave an MFI SHP-2 [16] of 165 MFI.
